According to patent US20220259318A1 (Hoffmann-La Roche, published 2022):

Key:
Experiment in all cases: cell-based or functional assay
BCMA [1] = biological target: T1, BCMA (UniProt Q02223 1-184, limits assumed)
T1 sequence (looked up): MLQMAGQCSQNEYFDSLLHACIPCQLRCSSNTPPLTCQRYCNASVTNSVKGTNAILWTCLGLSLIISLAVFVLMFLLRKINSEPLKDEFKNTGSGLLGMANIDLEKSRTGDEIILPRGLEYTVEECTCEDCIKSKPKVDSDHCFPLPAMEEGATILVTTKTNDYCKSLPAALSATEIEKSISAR

BCMA [2] = biological target: T1, BCMA; remark: listed apart in the source
BCMA [3] = biological target: T1, BCMA; remark: listed apart in the source
BCMA [4] = biological target: T1, BCMA; remark: listed apart in the source

B1: BCMA-TCB (bispecific antibody, human IgG1, kappa, L234A L235A)
light 1: EIVLTQSPGTLSLSPGERATLSCRASQSVSAYYLAWYQQKPGQAPRLLMYDASIRATGIPDRFSGSGSGTDFTLTISRLEPEDFAVYYCQQYERWPLTFGQGTKVEIKRTVAAPSVFIFPPSDRKLKSGTASVVCLLNNFYPREAKVQWKVDNALQSGNSQESVTEQDSKDSTYSLSSTLTLSKADYEKHKVYACEVTHQGLSSPVTKSFNRGEC
light 2: EVQLLESGGGLVQPGGSLRLSCAASGFTFSTYAMNWVRQAPGKGLEWVSRIRSKYNNYATYYADSVKGRFTISRDDSKNTLYLQMNSLRAEDTAVYYCVRHGNFGNSYVSWFAYWGQGTLVTVSSASVAAPSVFIFPPSDEQLKSGTASVVCLLNNFYPREAKVQWKVDNALQSGNSQESVTEQDSKDSTYSLSSTLTLSKADYEKHKVYACEVTHQGLSSPVTKSFNRGEC
heavy 1: EVQLLESGGGLVQPGGSLRLSCAASGFTFSSYAMNWVRQAPGKGLEWVSAITASGGSTYYADSVKGRFTISRDNSKNTLYLQMNSLRAEDTAVYYCARYWPMSLWGQGTLVTVSSASTKGPSVFPLAPSSKSTSGGTAALGCLVEDYFPEPVTVSWNSGALTSGVHTFPAVLQSSGLYSLSSVVTVPSSSLGTQTYICNVNHKPSNTKVDEKVEPKSCDKTHTCPPCPAPEAAGGPSVFLFPPKPKDTLMISRTPEVTCVVVDVSHEDPEVKFNWYVDGVEVHNAKTKPREEQYNSTYRVVSVLTVLHQDWLNGKEYKCKVSNKALGAPIEKTISKAKGQPREPQVCTLPPSRDELTKNQVSLSCAVKGFYPSDIAVEWESNGQPENNYKTTPPVLDSDGSFFLVSKLTVDKSRWQQGNVFSCSVMHEALHNHYTQKSLSLSPGK
heavy 2: not shown
EC50 in vitro killing assay, AMO-1 (BCMA [1]): 518 pM | EC50 in vitro killing assay, EJM (BCMA [1]): 132 pM | EC50 in vitro killing assay, L363 (BCMA [1]): 127 pM | EC50 in vitro killing assay, MOLP-2 (BCMA [1]): 32 pM | EC50 in vitro killing assay, NCI-H929 (BCMA [1]): 311 pM | EC50 in vitro killing assay, OPM-2 (BCMA [1]): 33 pM | EC50 in vitro killing assay, RPMI (BCMA [1]): 11 pM | EC50 (pM), activation of autologous T-cells (CD69 on CD8 T cells) with a primary MM sample (BCMA [2]): 52.5 pM | AUC, TCB-mediated tumor cell lysis, AMO-1 (BCMA [3]): 4.73e+07 | AUC, TCB-mediated tumor cell lysis, IM-9 (BCMA [3]): 1.1e+07 | AUC, TCB-mediated tumor cell lysis, LP-1 (BCMA [3]): 1.11e+07 | AUC, TCB-mediated tumor cell lysis, NCI-H929 (BCMA [3]): 1.07e+07 | EC50 (pM), TCB-mediated tumor cell lysis, AMO-1 (BCMA [4]): 137 pM | EC50 (pM), TCB-mediated tumor cell lysis, IM-9 (BCMA [4]): 55.7 pM | EC50 (pM), TCB-mediated tumor cell lysis, LP-1 (BCMA [4]): 76.4 pM | EC50 (pM), TCB-mediated tumor cell lysis, NCI-H929 (BCMA [4]): 171 pM
